Results on 9 molecules are retold here after patent US20230365711A1 (Hoffmann-La Roche, published 2023).

The target in experiment [1] is huNABA-avi-his (hybrid protein N-A1-B3-A2: N and A1 domains of human BGP, B3 domain of human CEA, A2 domain of BGP, with precision protease site, avi tag and (His)6 tag), biotinylated (human). The experiment in a line: Biacore on immobilized NABA-avi-his; Bivalent Affinity.
Experiment [2] deals with T1, huNABA-avi-his (hybrid protein N-A1-B3-A2: N and A1 domains of human BGP, B3 domain of human CEA, A2 domain … (human, biotinylated at the avi tag (in vivo, co-transfected biotin ligase))).
T1 construct: also called NABA-avi-his reagent; biotinylated NABA
T1 chain: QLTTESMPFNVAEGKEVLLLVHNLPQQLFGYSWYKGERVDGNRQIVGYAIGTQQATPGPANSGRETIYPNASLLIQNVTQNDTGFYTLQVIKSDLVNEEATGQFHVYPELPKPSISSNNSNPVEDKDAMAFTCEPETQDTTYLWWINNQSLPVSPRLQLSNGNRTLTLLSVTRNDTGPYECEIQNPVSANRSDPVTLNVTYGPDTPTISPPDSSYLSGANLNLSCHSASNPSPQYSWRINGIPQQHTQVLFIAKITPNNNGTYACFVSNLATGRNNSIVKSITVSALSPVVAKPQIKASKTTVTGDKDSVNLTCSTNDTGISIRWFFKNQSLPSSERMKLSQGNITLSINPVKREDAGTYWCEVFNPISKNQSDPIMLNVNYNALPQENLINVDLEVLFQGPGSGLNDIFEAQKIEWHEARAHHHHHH
The experiment in a line: Biacore, column Affinity, CDR-H1 and CDR-H2 rows; antigen not named on the sheet, NABA-avi-his per paragraph 230.

In experiment [3] the target is T1, huNABA-avi-his (hybrid protein …). The experiment in a line: Biacore, column Affinity, CDR-H3 rows; antigen not named on the sheet, NABA-avi-his per paragraph 230.
Experiment [4] has the same target. The experiment in a line: Biacore, Fab on immobilized NABA-avi-his; column Monovalent Affinity.
Experiment [5] deals with T2, human carcinoembryonic antigen (CEA), membrane-bound on cells (human, UniProt P06731 35-685).
T2 construct: whole, on cells; also called CEACAM-5; CD66e
T2 sequence (looked up): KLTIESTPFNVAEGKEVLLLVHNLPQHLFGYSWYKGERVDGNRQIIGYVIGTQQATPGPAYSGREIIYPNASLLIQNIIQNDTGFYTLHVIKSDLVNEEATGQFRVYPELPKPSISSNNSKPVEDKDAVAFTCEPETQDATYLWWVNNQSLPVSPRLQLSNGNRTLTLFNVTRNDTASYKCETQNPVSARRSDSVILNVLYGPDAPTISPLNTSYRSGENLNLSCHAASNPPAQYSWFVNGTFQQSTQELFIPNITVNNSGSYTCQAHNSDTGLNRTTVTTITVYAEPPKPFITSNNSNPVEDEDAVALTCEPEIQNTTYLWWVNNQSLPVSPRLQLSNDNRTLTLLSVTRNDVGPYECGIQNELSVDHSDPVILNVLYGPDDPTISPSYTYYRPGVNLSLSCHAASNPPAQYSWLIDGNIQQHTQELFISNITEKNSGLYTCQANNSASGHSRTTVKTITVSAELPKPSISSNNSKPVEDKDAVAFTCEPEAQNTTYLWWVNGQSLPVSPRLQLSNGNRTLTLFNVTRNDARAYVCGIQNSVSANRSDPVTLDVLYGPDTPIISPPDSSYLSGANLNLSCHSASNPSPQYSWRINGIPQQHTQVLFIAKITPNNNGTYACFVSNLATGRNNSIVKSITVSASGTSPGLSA
The experiment in a line: flow cytometry on MKN45 cells, IgG1/kappa. The procedure: (§1) An affinity matured heavy chain variable region construct, CH7A rF9, and an affinity matured light chain variable region construct, CL1A rH11, were paired with the parent light chain variable region construct and the heavy chain variable region construct, respectively, and with each other. All antibodies were converted into human IgG1/kappa and binding to the CEA-positive cell-line MKN45 was measured by flow cytometry. […] The matured light chain shifts the EC50 values to lower numbers, whereas the matured heavy chains (rF9 in FIG. 6, and rB9 in FIG. 15) shift the total fluorescence signal intensity in a flow-cytometry measurement. […] The combination of these two chains increases the affinity even further.

Experiment [6] has as its target T2, human carcinoembryonic antigen (CEA), …. The experiment in a line: flow cytometry on MKN45 cells, IgG [upper panel]. The method, then: as §1
Experiment [7] addresses T1, huNABA-avi-his (hybrid protein …). The experiment in a line: Biacore, column Affinity, CDR-L1 and CDR-L2 rows; antigen not named on the sheet, NABA-avi-his per paragraph 230.
Experiment [8] has the same target. The experiment in a line: Biacore, column Affinity, CDR-H1 and CDR-H2 rows; antigen not named on the sheet, NABA-avi-his per paragraph 230.
For experiment [9] the target is unchanged. The experiment in a line: Biacore SPR, Fab; antigen not named on the sheet, NABA-avi-his per paragraph 230.
Experiment [10] addresses T2, human carcinoembryonic antigen (CEA), …. The experiment in a line: flow cytometry on CEA positive MKN45 cells, IgG [lower panel]. The method, then: as §1
Experiment [11] has as its target T1, huNABA-avi-his (hybrid protein …). The experiment in a line: Biacore, column Affinity, CDR-L1 and CDR-L2 rows (QNVGTN and PLI-YSASYRYS); antigen not named on the sheet, NABA-avi-his per paragraph 230.
Experiment [12] shares this target. The experiment in a line: Biacore on immobilized NABA-avi-his; Bivalent Affinity.

B1: H3 Full (5) 19 (Fab, V domains shown)
VH: QVQLVQSGSELKKPGASVKVSCKASGYTFTEFGMSWVRQAPGQGLEWMGWINTKTGEATYVEEFKGRFVFSLDTSVSTAYLQISSLKAEDTAVYYCARWDAFEYVKALDYWGQGTTVTVSS
VL: DIQMTQSPSSLSASVGDRVTITCKASQNVGTNVAWYQQKPGKAPKLLIYSASYRYSGVPSRFSGSGSGTDFTLTISSLQPEDFATYYCHQYYTYPLFTFGQGTKLEIK
Take B1: the Kd worked out at 0.19 nM in experiment [1], 26 nM in [2], 26 nM in [3] and 24 nM in [4]. Moreover, the koff in experiment [1] amounted to 0.000175 s⁻¹; in experiment [4], 0.0013 s⁻¹. Also, the kon was found to be 902000 M⁻¹ s⁻¹ in experiment [1] and 54200 M⁻¹ s⁻¹ in experiment [4].

B2: antibody with parent heavy chain variable region CH7A and affinity matured light chain variable region CL1A rH11 (antibody, V domains shown)
VH: QVQLVQSGSELKKPGASVKVSCKASGYTFTEFGMNWVRQAPGQGLEWMGWINTKTGEATYVEEFKGRFVFSLDTSVSTAYLQISSLKAEDTAVYYCARWDFYDYVEAMDYWGQGTTVTVSS
VL: DIQMTQSPSSLSASVGDRVTITCKASQTVSANVAWYQQKPGKAPKLLIYLASYRYRGVPSRFSGSGSGTDFTLTISSLQPEDFATYYCHQYYTYPLFTFGQGTKLEIK
notes: The suffix G2(1) is not explained; also called CH7A, CL1ArH11; CH7A, CL1A rH11 G2(1)
With B2, the “EC50 (read off the curve)” value was roughly 0.3 µg/mL in experiment [5] and roughly 0.5 µg/mL in [6].

B3: PR1A3 (Fab, V domains shown)
VH: QVQLVQSGSELKKPGASVKVSCKASGYTFTEFGMNWVRQAPGQGLEWMGWINTKTGEATYVEEFKGRFVFSLDTSVSTAYLQISSLKAEDTAVYYCARWDFYDYVEAMDYWGQGTTVTVSS
VL: DIQMTQSPSSLSASVGDRVTITCKASQNVGTNVAWYQQKPGKAPKLLIYSASYRYSGVPSRFSGSGSGTDFTLTISSLQPEDFATYYCHQYYTYPLFTFGQGTKLEIK
notes: also called PR1A3 wt/wt; pMS22
For B3, the Kd in experiment [7], in experiment [8], in experiment [3] and in experiment [4] was 3680 nM in each case. The molecule also yielded a koff in experiment [4] of 0.0248 s⁻¹. This molecule came in with a kon in experiment [4] of 6740 M⁻¹ s⁻¹.

B4: anti-CEA Fab with unmatured heavy chain CH7A and affinity matured light chain CL1A pAC18 (Fab, V domains shown)
VH: QVQLVQSGSELKKPGASVKVSCKASGYTFTEFGMNWVRQAPGQGLEWMGWINTKTGEATYVEEFKGRFVFSLDTSVSTAYLQISSLKAEDTAVYYCARWDFYDYVEAMDYWGQGTTVTVSS
VL: DIQMTQSPSSLSASVGDRVTITCKASAAVGTYVAWYQQKPGKAPKLLIYSASYRKRGVPSRFSGSGSGTDFTLTISSLQPEDFATYYCHQYYTYPLFTFGQGTKLEIKR
notes: Fab format, bacterially expressed; also called CH7A + CL1A pAC18
For B4, the Kd in experiment [9] turned out to be 216 nM; in experiment [7] it was 220 nM; in [4] it was 220 nM. The koff in experiment [4] stood at 0.0207 s⁻¹. Besides, the kon in experiment [4] was 95700 M⁻¹ s⁻¹.

B5: anti-CEA Fab with affinity matured heavy chain CH7A H4E9 and affinity matured light chain CL1A pAC18 (Fab, V domains shown)
VH: QVQLVQSGSELKKPGASVKVSCKASGYTFTEFGMNWVRQAPGQGLEWMGWINTKTGEATYIEEFKGRFVFSLDTSVSTAYLQISSLKAEDTAVYYCARWDFYDYVEAMDYWGQGTTVTVSS
VL: DIQMTQSPSSLSASVGDRVTITCKASAAVGTYVAWYQQKPGKAPKLLIYSASYRKRGVPSRFSGSGSGTDFTLTISSLQPEDFATYYCHQYYTYPLFTFGQGTKLEIKR
notes: Fab format, bacterially expressed; also called CH7A H4E9 and CL1A pAC18
In [9], B5 yielded a Kd of 96 nM. In [4], this molecule came in with a Kd of 96 nM, a koff of 0.0035 s⁻¹ and a kon of 36400 M⁻¹ s⁻¹.

B6: antibody with affinity matured heavy chain variable region CH7A rB9 and affinity matured light chain variable region CL1A rH11 G2(1) (antibody, V domains shown)
VH: QVQLVQSGSELKKPGASVKVSCKASGYTFTEFGMNWVRQAPGQGLEWMGWINTKSGEATYVEEFKGRFVFSLDTSVSTAYLQISSLKAEDTAVYYCARWDFYDYVEAMDYWGQGTTVTVSS
VL: DIQMTQSPSSLSASVGDRVTITCKASQTVSANVAWYQQKPGKAPKLLIYLASYRYRGVPSRFSGSGSGTDFTLTISSLQPEDFATYYCHQYYTYPLFTFGQGTKLEIK
notes: also called CH7A rB9, CL1A rH11 G2(1); CH7ArB9, CL1A rH11G2(1)
For B6, in [10], the concentration for a half-maximal effect (EC50 (read off the curve)) was roughly 0.5 µg/mL.

B7: anti-CEA Fab with affinity matured heavy chain CH7A H4E9 and unmatured light chain CL1A (Fab, V domains shown)
VH: QVQLVQSGSELKKPGASVKVSCKASGYTFTEFGMNWVRQAPGQGLEWMGWINTKTGEATYIEEFKGRFVFSLDTSVSTAYLQISSLKAEDTAVYYCARWDFYDYVEAMDYWGQGTTVTVSS
VL: DIQMTQSPSSLSASVGDRVTITCKASQNVGTNVAWYQQKPGKAPKLLIYSASYRYSGVPSRFSGSGSGTDFTLTISSLQPEDFATYYCHQYYTYPLFTFGQGTKLEIK
notes: Fab format, bacterially expressed; also called CH7A H4E9 + CL1A
As for B7, the Kd in experiment [9] was 518 nM; in [11] it was 402 nM; in experiment [8], 402 nM; in experiment [4], 402 nM. This molecule yielded a koff in experiment [4] of 0.0021 s⁻¹. Besides, the kon in experiment [4] stood at 5220 M⁻¹ s⁻¹.

B8: humanized PR1A3 antibody comprising heavy chain variable region construct CH7A and light chain variable region construct CL1A (antibody, human IgG1, V domains shown)
VH: QVQLVQSGSELKKPGASVKVSCKASGYTFTEFGMNWVRQAPGQGLEWMGWINTKTGEATYVEEFKGRFVFSLDTSVSTAYLQISSLKAEDTAVYYCARWDFYDYVEAMDYWGQGTTVTVSS
VL: DIQMTQSPSSLSASVGDRVTITCKASQNVGTNVAWYQQKPGKAPKLLIYSASYRYSGVPSRFSGSGSGTDFTLTISSLQPEDFATYYCHQYYTYPLFTFGQGTKLEIK
notes: also called CH7A CL1A; CH7A, CL1A
As to B8, the “EC50 (read off the curve)” value in experiment [5] is roughly 0.6 µg/mL. Further, in experiment [12], the Kd came to 2 nM, the koff was found to be 0.000552 s⁻¹ and the kon is 282000 M⁻¹ s⁻¹. The “EC50 (read off the curve)” value in experiment [10] is roughly 0.6 µg/mL.

B9: antibody with heavy chain variable region CH7A and affinity matured light chain variable region CL1A rH7 (antibody, V domains shown)
VH: QVQLVQSGSELKKPGASVKVSCKASGYTFTEFGMNWVRQAPGQGLEWMGWINTKTGEATYVEEFKGRFVFSLDTSVSTAYLQISSLKAEDTAVYYCARWDFYDYVEAMDYWGQGTTVTVSS
VL: DIQMTQSPSSLSASVGDRVTITCKASQKVLTNVAWYQQKPGKAPKLLIYLASYRYSGVPSRFSGSGSGTDFTLTISSLQPEDFATYYCHQYYTYPLFTFGQGTKLEIK
notes: also called CH7A, CL1ArH7
Regarding B9, the “EC50 (read off the curve)” value in [6] was roughly 0.7 µg/mL.
